Test results from patent US20200230173A1 (US Dept. of Health and Human Services, published 2020).

Target: T1, human TNFR2-Fc fusion protein (human, UniProt P20333 23-257)
T1 construct: not shown: Fc part
T1 sequence (looked up): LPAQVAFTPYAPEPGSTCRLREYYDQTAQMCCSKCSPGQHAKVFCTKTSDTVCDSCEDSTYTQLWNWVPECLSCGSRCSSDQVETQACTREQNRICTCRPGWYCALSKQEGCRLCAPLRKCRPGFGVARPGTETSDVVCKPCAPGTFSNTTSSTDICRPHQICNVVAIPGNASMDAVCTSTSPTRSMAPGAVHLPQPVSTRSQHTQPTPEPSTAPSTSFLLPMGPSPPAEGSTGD
Assay: selection from a phage display scFv library on human TNFR2-Fc

binding result: binds
B1: human TNFR2-specific monoclonal antibody E4 (antibody, V domains shown)
VH: QITLKESGPTLVKPTQTLTLTCTFSGFSLTTSGVGVGWIRQPPGKALEWLALIYWDDDKRYSPSLKSRLTITKDTSKNQVVLTMTNMDPVDTATYYCAHLDGSGSLDYWGQGTLVTVSS
VL: QSVLTQPPSASGTPGQRVTISCSGSTSNIGRNSVNWYSHLPGAAPKLLISGNDQRPSGVPDRFSGSKSDNTASLTVSGLQAEDEAHYYCSSSAANLGVFGGGTKLTVLG
